Test results as given in publication PMC5726015, “Selection, characterization, and thermal stabilization of llama single domain antibodies towards Ebola virus glycoprotein” (Microbial Cell Factories, 2017).
Changes are numbered by the printed parent chain.

B1: EBOV-GP-H7-neg+ (VHH)
VHH: DVQLVESGGGLVQAGGSLRLSCAASSGTFSSYTMGWFRQAPGKERELVCRLSQSLTTLYADSVKGRFTCSRDNAENTVYLQMNSLKPEDTGVYYCAAHPGTYGSAWLISPHDYAYWGQGTQVTVSS
notes: also called EBOV-H7-neg+; Bt-sdAb-neg+
B2: EBOV-GP-A8-neg+ (VHH)
VHH: EVQLVESGGGLVQAGDSLQLSCAAPGRPVRTYTMGWFRQAPGKEREFVCANNWRGTRYAGSVRGRFSCSRDNSKNTVYLQMNSLKPEDTAVYYCACAVTADLLLSGNYFRGDDYDYWGQGTQVTVSS
B3: EBOV-GP-A8-fneg+ (VHH)
VHH: B2 VHH with C96S
notes: also called Bt-sdAb-neg+
B4: EBOV-GP-G6-neg+ (VHH)
VHH: DVQLVESGGGLVQAGGSLRISCAASGGALSDYNMGWFRQAPGKEREFVCVVTWSGGSTRYADSVNGRFTCSRDNAKNTVYLQMNSLKPEDTAVYYCAAAPLTPFQSLGDMKAYNYWGQGTQVTVSS
notes: also called Bt-sdAb-neg+
B5: R2H11 (VHH)
VHH: EVQLQASGGGLVQAGGSTRLSCAGSGSIFSINAMGWYRQTPEKQRELVATISSSGSTKYGDSVKGRFTISRDNAKNTVYLQMNSLKPEDTAVYYCNTQTAGPVADWGTSHYDYWGQGVQVTVS
B6: R2H1 (VHH)
VHH: EVLLQASGGGLVQPGGSLRLSCAASGLIFSINVMGWYRQTPGKQRELVASISRDDSTKYADSVKGRFTISRDNAKNTVYLQMNSLKPEDTAVYYCNTQTEGPVADWGTSHYDYWGQGTQVTVS
B7: R3B7 (VHH)
VHH: DVQLQASGGGLVQTGGSLRLACAGSGRSFNNYGMGWFRQAPGKERQFVAAISGNDHTTHYSDSVKGRFTISRDNAKSTVYLQMNSLKPEDTAVYYCAADRLGSFFFPRASPSDYGYWGQGTQVTVS
B8: R2A1 (VHH)
VHH: EVQLQASGGGLVQARGSLQLSCAAPGRPVRTYTMGWFRQAPGKEREFVAANNWRGTRYAGSVRGRFSISRDNSKNTVYLQMNSLKPEDTAVYYCACAVTADLLLSGNYFRGDDYDYWGQGTQVTVS
B9: R3G10 (VHH)
VHH: B8 VHH with L11S, R15G, I68T
B10: R2B4 (VHH)
VHH: B8 VHH with R15G, V98E
B11: R2E4 (VHH)
VHH: B8 VHH with R15G
B12: R3H8 (VHH)
VHH: B8 VHH with R15G, R27H
B13: R3C11 (VHH)
VHH: B8 VHH with E1D, R15G, K43E, I68V, F109Y, Q119L
B14: R2E6 (VHH)
VHH: B8 VHH with E1D, R15G, K43M, Y58H
B15: R2D10 (VHH)
VHH: EVQLQASGGGLVEPGGPLRLSCAVSGINFNINHWGWYRQAPGKQREWVATIAIGGATDYADSLKGRFTISRDNMKNTVYLQMNSLRPEDTAVYYCNGVGSKWSDRWGQGTQVTVS
B16: R2G2 (VHH)
VHH: B15 VHH with P17S
B17: R3F8 (VHH)
VHH: B15 VHH with P17S, L63V
B18: R2C8 (VHH)
VHH: B15 VHH with P17S, G55S, T68A, G107D
B19: R3F12 (VHH)
VHH: DVQLQASGGGLVQAGGSLRLSCAASSGTFSSYTMGWFRQAPGKERELVARLSQSLTTLYADSVKGRFTISRDNAENTVYLQMNSLKPEDTGVYYCAAHPGTYGSAWLISPHDYAYWGQGAQVTVS
B20: EBOV-GP-E7 (VHH)
VHH: B5 VHH with A14P, G15R, T18L, G24A, P102L
B21: EBOV-GP-G6 (VHH)
VHH: DVQLQASGGGLVQAGGSLRISCAASGGALSDYNMGWFRQAPGKEREFVAVVTWSGGSTRYADSVNGRFTISRDNAKNTVYLQMNSLKPEDTAVYYCAAAPLTPFQSLGDMKAYNYWGQGTQVTVS
B22: EBOV-GP-B11 (VHH)
VHH: B7 VHH with D1E, S77T
B23: EBOV-GP-D1 (VHH)
VHH: EVQLQASGGGSVPPGGSLRLSCTASLRAFSTYTMGWFRQAPGKEREFVAASNWRGTDFHDSVRGRFIISRDNTEKTVDLQMNSLKPEDTAIYYCAADGSTWLKRSDYSYWGQGTQVTVS
B24: EBOV-GP-B5 (VHH)
VHH: B23 VHH with S11L, P13Q, P14A, R63K, E74K
B25: EBOV-GP-A8 (VHH)
VHH: B8 VHH with V12A, R15G
notes: also called Bt-EBOV-GP-A8
B26: EBOV-GP-H7 (VHH)
VHH: B19 VHH with A120T
B27: EBOV-GP-C12 (VHH)
VHH: EVQLQASGGGLVQPGGSLRLSCTASGSIFSINAMGWYRQTPRKERELVAAISEGGSTKYGDSVKGRFTISRDFAKNTQMVYLQMNSLKAEDTAVYYCKAQTEGPIADWGTSQYEYWGQGTQVTVS

Molecular target: T1, Recombinant EBOV GP without transmembrane domain (Zaire ebolavirus, strain of GP not …, UniProt Q05320)
T1 construct: also called recombinant GP; EBOV rGPdTM; source: bought: IBT Bioservices
Test: SPR
Settings: both partners purified

| Binder | Kd [nM] | koff [s⁻¹] | kon [M⁻¹ s⁻¹] |
| --- | --- | --- | --- |
| B1 | 40 | 0.0014 | 35000 |
| B2 | 0.95 | 5.8e-05 | 61000 |
| B3 | 0.69 | 9.1e-05 | 130000 |
| B4 | 44 | 0.00015 | 3500 |

Molecular target: Recombinant EBOV GP without transmembrane domain (Zaire ebolavirus, strain of GP not …, UniProt Q05320)
Test: not given
Settings: not given

| Binder | binding result |
| --- | --- |
| B5 | binds |
| B6 | binds |
| B7 | binds |
| B8 | binds |
| B9 | binds |
| B10 | binds |
| B11 | binds |
| B12 | binds |
| B13 | binds |
| B14 | binds |
| B15 | binds |
| B16 | binds |
| B17 | binds |
| B18 | binds |
| B19 | binds |

Molecular target: T1, Recombinant EBOV GP without …
Test: SPR
Settings: both partners purified
Remark: another data set of the same source

| Binder | Kd [nM] | koff [s⁻¹] | kon [M⁻¹ s⁻¹] |
| --- | --- | --- | --- |
| B20 | 34 | 0.00011 | 3500 |
| B21 | 2 | 0.00015 | 70000 |
| B22 | 35.9 | 0.00321 | 89800 |
| B23 | 11 | 0.00033 | 30000 |
| B24 | 11 | 0.00037 | 34000 |
| B25 | 2.3 | 7.2e-05 | 31000 |
| B26 | 17 | 0.0003 | 17000 |
| B27 | 26.8 | 8.71e-05 | 3280 |
